In patent publication US20210169973A1:

Molecular target: murine TMEM219 expressed on murine islets and the murine beta cell line beta-TC (mouse) (UniProt Q9D123)
Assay: cell-based or functional assay

UniProt Q9D123, sequence (Q9D123 39-240): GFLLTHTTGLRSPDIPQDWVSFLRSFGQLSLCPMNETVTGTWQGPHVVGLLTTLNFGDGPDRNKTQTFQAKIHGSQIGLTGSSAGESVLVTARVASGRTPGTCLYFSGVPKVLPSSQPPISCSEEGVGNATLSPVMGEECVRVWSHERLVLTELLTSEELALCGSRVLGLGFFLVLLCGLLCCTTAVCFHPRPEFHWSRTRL

early apoptosis of murine islets by FACS (Annexin V+ 7AAD-), IGFBP3-treated vs. untreated: 87%
Substance: recombinant human IGFBP3 (Life Technologies, 10430H07H5) (from UniProt P17936 28-291) (ligand)
